Data on three molecules can be found in patent US20140093973A1 (BOARD OF REGENTS OF THE UNIVERSITY OF OKLAHOMA, published 2014).

Where two headings read alike, the source gives them in different places. Ends that are not written are not given here.

In assay [1] the target is T1, soluble HLA-B*1512 (human).
T1 construct: Member of the panel of 53 single-specificity sHLA
The assay is described as follows: FP screen.

Assay [2] addresses T2, soluble HLA-B*4002 (human).
T2 construct: Member of the panel of 53 single-specificity sHLA
The assay is described as follows: FP screen.

Assay [3] addresses T3, soluble HLA-A*2601 (human).
T3 construct: Member of the panel of 53 single-specificity sHLA
Nature of the assay: FP screen.

For assay [4], the target named is soluble HLA-A*0201 (sHLA-A*0201) (human). Nature of the assay: FP screen.
Assay [5] has as its target T4, soluble HLA-B*4501 (human).
T4 construct: Member of the panel of 53 single-specificity sHLA
The assay is described as follows: FP screen.

Assay [6] has as its target T5, soluble HLA-B*1801 (human).
T5 construct: Member of the panel of 53 single-specificity sHLA
The assay is described as follows: FP screen.

Assay [7] has as its target T6, soluble HLA-A*6901 (sHLA-A*6901) (human).
T6 construct: Recombinant soluble class I with endogenous peptides, made as m1
The assay is described as follows: FP screen.

Assay [8] addresses T7, soluble HLA-A*3601 (human).
T7 construct: Member of the panel of 53 single-specificity sHLA
The assay is described as follows: FP screen.

Assay [9] addresses T8, soluble HLA-A*0101 (human).
T8 construct: Member of the panel of 53 single-specificity sHLA
The assay is described as follows: FP screen.

The target in assay [10] is T9, soluble HLA-A*2402 (human).
T9 construct: Member of the panel of 53 single-specificity sHLA
Nature of the assay: FP screen.

Assay [11] concerns the target T10, soluble HLA-B*4402 (human).
T10 construct: Member of the panel of 53 single-specificity sHLA
Nature of the assay: FP screen.

The target in assay [12] is T11, soluble HLA-A*4301 (sHLA-A*4301) (human).
T11 construct: Recombinant soluble class I with endogenous peptides, made as m1
The assay is described as follows: FP screen.

In assay [13] the target is T12, soluble HLA-B*4001 (human).
T12 construct: Member of the panel of 53 single-specificity sHLA
Nature of the assay: FP screen.

The target in assay [14] is T13, soluble HLA-A*2301 (human).
T13 construct: Member of the panel of 53 single-specificity sHLA
The assay is described as follows: FP screen.

Assay [15] concerns the target T14, soluble HLA-B*2705 (sHLA-B*2705) (human).
T14 construct: Recombinant soluble class I with endogenous peptides, made as m1; negative control
Nature of the assay: FP screen.

Assay [16] deals with T15, soluble HLA-A*3002 (human).
T15 construct: Member of the panel of 53 single-specificity sHLA
Nature of the assay: FP screen.

In assay [17] the target is T16, soluble HLA-A*0301 (human).
T16 construct: Member of the panel of 53 single-specificity sHLA
The assay is described as follows: FP screen of 53 sHLA with FITC-peptide.

For assay [18], the target named is T17, soluble HLA-A*3402 (human).
T17 construct: Member of the panel of 53 single-specificity sHLA
Nature of the assay: FP screen of 53 sHLA with FITC-peptide.

The target of assay [19] is T18, soluble HLA-A*6601 (human).
T18 construct: Member of the panel of 53 single-specificity sHLA
The assay is described as follows: FP screen of 53 sHLA with FITC-peptide.

Assay [20] deals with T19, soluble HLA-A*2902 (human).
T19 construct: Member of the panel of 53 single-specificity sHLA
Nature of the assay: FP screen of 53 sHLA with FITC-peptide.

The target in assay [21] is T20, soluble HLA-B*1501 (human).
T20 construct: Member of the panel of 53 single-specificity sHLA
Nature of the assay: FP screen of 53 sHLA with FITC-peptide.

Assay [22] concerns the target T18, soluble HLA-A*6601. The assay is described as follows: FP screen.
Assay [23] concerns the target T21, soluble HLA-B*1302 (human).
T21 construct: Member of the panel of 53 single-specificity sHLA
Nature of the assay: FP screen.

The target of assay [24] is T20, soluble HLA-B*1501. The assay is described as follows: FP screen.
Assay [25] has as its target T8, soluble HLA-A*0101. The assay is described as follows: FP screen of 53 sHLA with FITC-peptide.
For assay [26], the target named is T19, soluble HLA-A*2902. The assay is described as follows: FP screen of 53 sHLA with FITC-peptide. The source holds these as a separate data set.
In assay [27] the target is T1, soluble HLA-B*1512. The assay is described as follows: FP screen. The source holds these as a separate data set.
Assay [28] deals with T2, soluble HLA-B*4002. The assay is described as follows: FP screen. The source holds these as a separate data set.
The target in assay [29] is soluble HLA-A*0201 (sHLA-A*0201) (human). Nature of the assay: FP screen. This is another data set of the same source.
Assay [30] addresses T4, soluble HLA-B*4501. Nature of the assay: FP screen. The source holds these as a separate data set.
Assay [31] deals with T16, soluble HLA-A*0301. The assay is described as follows: FP screen.
In assay [32] the target is T5, soluble HLA-B*1801. Nature of the assay: FP screen. This is another data set of the same source.
The target of assay [33] is T6, soluble HLA-A*6901 (sHLA-A*6901). Nature of the assay: FP screen. The source holds these as a separate data set.
The target of assay [34] is T18, soluble HLA-A*6601. The assay is described as follows: FP screen. This is another data set of the same source.
In assay [35] the target is T9, soluble HLA-A*2402. Nature of the assay: FP screen. This is another data set of the same source.
The target in assay [36] is T21, soluble HLA-B*1302. Nature of the assay: FP screen. This is another data set of the same source.
The target in assay [37] is T10, soluble HLA-B*4402. The assay is described as follows: FP screen. The source holds these as a separate data set.
Assay [38] deals with T20, soluble HLA-B*1501. The assay is described as follows: FP screen. The source holds these as a separate data set.
Assay [39] addresses T22, soluble HLA-A*6801 (sHLA-A*6801) (human).
T22 construct: Recombinant soluble class I with endogenous peptides, made as m1
The assay is described as follows: FP screen.

The target in assay [40] is T12, soluble HLA-B*4001. Nature of the assay: FP screen. The source holds these as a separate data set.
The target in assay [41] is T13, soluble HLA-A*2301. The assay is described as follows: FP screen. The source holds these as a separate data set.
In assay [42] the target is T14, soluble HLA-B*2705 (sHLA-B*2705). Nature of the assay: FP screen. The source holds these as a separate data set.
The target in assay [43] is T15, soluble HLA-A*3002. The assay is described as follows: FP screen. This is another data set of the same source.
The target of assay [44] is T23, soluble HLA-A*1102 (sHLA-A*1102) (human, UniProt P04439 25-308; P61769 21-119).
T23 construct: Recombinant soluble class I with endogenous peptides, made as m1
The assay is described as follows: FP screen.

B1: SLFRAVIKK, FITC-labeled A3-like peptide (peptide)
peptide: SLFRAVIKK
modifications: also: FITC-labeled, position not given here
For the molecule B1, the binding result in assay [1], in [2], in [3], in [4], in [5] and in [6] was “no binding (tested: 100 ug/ml sHLA)” each time. The binding result in [7], in [8], in [9], in assay [10], in [11] and in assay [12] was “no binding (tested: 100 ug/ml sHLA)” each time. For the same molecule, the binding result in [13] is on record as “no binding (tested: 100 ug/ml sHLA)”; in [14], “no binding (tested: 100 ug/ml sHLA)”; in [15] it was “no binding (tested: 100 ug/ml sHLA)”; in assay [16], “no binding (tested: 100 ug/ml sHLA)”; in assay [17], “binds”; in [18], “binds”. Moreover, the binding result in assay [19], in assay [20] and in [21] was “binds” in each case.

B2: KVFPKALINK, FITC-labeled A3-like peptide (peptide)
peptide: KVFPKALINK
modifications: also: FITC-labeled, position not given here
Take B2: the binding result in assay [1], in assay [2], in [3], in [4], in assay [5] and in [6] was “no binding (tested: 100 ug/ml sHLA)” each time. Also, the binding result in assay [7], in assay [8], in assay [9], in assay [22], in [10] and in assay [23] was “no binding (tested: 100 ug/ml sHLA)” each time. The binding result in assay [11], in [24], in assay [12], in assay [13], in [14] and in assay [15] was “no binding (tested: 100 ug/ml sHLA)” throughout. For the same molecule, the binding result in assay [16] is “no binding (tested: 100 ug/ml sHLA)”; in [17], “binds”; in [18], “binds”.

B3: YLEPAKAKY, FITC-labeled A1-like peptide (peptide)
peptide: YLEPAKAKY
modifications: also: FITC-labeled, position not given here
As to B3, the binding result is given as “binds” in assay [25]; “binds” in [26]; “no binding (tested: 100 ug/ml sHLA)” in assay [27]; “no binding (tested: 100 ug/ml sHLA)” in [28]; “no binding (tested: 100 ug/ml sHLA)” in assay [29]; “no binding (tested: 100 ug/ml sHLA)” in assay [30]. The binding result in assay [31], in assay [32], in assay [33], in [34], in [35] and in [36] was “no binding (tested: 100 ug/ml sHLA)” throughout. The binding result in [37], in assay [38], in [39], in assay [40], in assay [41] and in [42] was “no binding (tested: 100 ug/ml sHLA)” throughout. Besides, the binding result in [43] and in [44] was “no binding (tested: 100 ug/ml sHLA)” in each case.
